Assay [1] concerns the target CTLA4Ig fusion protein (human) (UniProt P16410). Description: solid phase binding, 4 nM ^125I-B7Ig on immobilized CTLA4Ig.
For assay [2] the target is unchanged. Description: solid phase competition, ^125I-B7Ig (4 nM) on immobilized CTLA4Ig.
Assay [3] shares this target. Description: Scatchard plot of the solid phase competition data, immobilized CTLA4Ig.
Assay [4] deals with T1, B7 antigen (B7-1) stably expressed on CHO cells (UniProt P33681 35-288, limits assumed).
T1 construct: whole, on cells; also called B7+CHO cells; B7 positive CHO cells
T1 sequence (looked up): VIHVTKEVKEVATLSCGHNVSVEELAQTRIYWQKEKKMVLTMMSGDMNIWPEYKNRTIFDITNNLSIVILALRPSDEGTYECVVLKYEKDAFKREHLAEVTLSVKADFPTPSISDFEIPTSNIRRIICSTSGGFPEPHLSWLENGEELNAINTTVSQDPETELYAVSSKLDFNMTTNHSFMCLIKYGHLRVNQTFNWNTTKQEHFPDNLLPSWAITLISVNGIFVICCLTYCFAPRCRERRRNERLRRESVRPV
Description: cell enzyme immunoassay on fixed B7-1+ CHO cells.

Regarding “B7Ig fusion protein (from UniProt P33681 35-241) (Fc fusion)”, in assay [1], the radioactivity bound to wells treated without competitor is 28300 cpm. Further, the IC50 (commonly the concentration at which inhibition is half-maximal) in assay [2] turned out to be 175 nM. Besides, the Kd (as a rule, the concentration at which binding is half-saturated) in assay [3] was found to be 12 nM.

B1: CTLA4/CD28Ig hybrid fusion protein HS12 (Fc fusion)
chain: NKILVKQSPMLVAYDNAVNLSCKYSYNLFSREFRASLHKGLDSAVEVCVATYMMGNELQVYSKTGFNCDGKLGNESVTFYLQNLYVNQTDIYFCKIELMYPPPYYLGIGNGTQIHVKGKHLCPS
notes: not shown: human IgG1 hinge (Cys to Ser), CH2, CH3; junction printed as DQE
In the case of B1, the binding result in assay [4] is listed as “binds”.

B2: CTLA4/CD28Ig hybrid fusion protein HS4 (Fc fusion)
chain: NKILVKQSPMLVAYDNAVNLSCKYSYNLFSREFRASLHKGLDSAVEVCVVYGNYSQQLQVYSKTGFNCDGKLGNESVTFYLQNLYVNQTDIYFCKIELMYPPPYYLGIGNGTQIYVIDPEPCPD
notes: range 1-96; also called the CD28Ig analog; not shown: human IgG1 hinge (Cys to Ser), CH2, CH3; junction printed as DQE
With B2, in assay [4], the “fold less binding than wild type CTLA4Ig” value is about 5 fold and the “increase in binding relative to CD28Ig” value was ~2.5 orders of magnitude.

B3: CTLA4/CD28Ig hybrid fusion protein HS10 (Fc fusion)
chain: NKILVKQSPMLVAYDNAVNLSCKYSYNLFSREFRASLHKGLDSAVEVCVATYMMGNELQVYSKTGFNCDGKLGNESVTFYLQNLYVNQTDIYFCKIELMYPPPYYLGIGNGTQIYVIDPEPCPD
notes: range 1-49;range 58-96; not shown: human IgG1 hinge (Cys to Ser), CH2, CH3; junction printed as DQE
Regarding B3, in assay [4], the binding result was “binds”.

B4: CTLA4/CD28Ig hybrid fusion protein HS7 (Fc fusion)
chain: NKILVKQSPMLVAYDNAVNLSCKYASPGKATEFRASLHKGLDSAVEVCVVYGNYSQQLQVYSKTGFNCDGKLGNESVTFYLQNLYVNQTDIYFCKIELMYPPPYYLGIGNGTQIYVIDPEPCPD
notes: range 1-24;range 33-96; not shown: human IgG1 hinge (Cys to Ser), CH2, CH3; junction printed as DQE
Turning to B4, the “% binding activity relative to CTLA4Ig” value in assay [4] is about 44%.

B5: CTLA4/CD28Ig hybrid fusion protein HS4-A (Fc fusion)
chain: NKILVKQSPMLVAYDNAVNLSCKYSYNLFSREFRASLHKGLDSAVEVCVVYGNYSQQLQVYSKTGFNCDGKLGNESVTFYLQNLYVNQTDIYFCKIELMYPPPYYLGIGNGTQIHVKGKHLCPS
notes: as for B1
For B5, in assay [4], the “% of wild type binding” value is about 2%.

B6: CTLA4/CD28Ig hybrid fusion protein HS8 (Fc fusion)
chain: NKILVKQSPMLVAYDNAVNLSCKYASPGKATEFRASLHKGLDSAVEVCVVYGNYSQQLQVYSKTGFNCDGKLGNESVTFYLQNLYVNQTDIYFCKIELMYPPPYYLGIGNGTQIHVKGKHLCPS
notes: as for B1
B6: the “% of wild type binding” value in assay [4] was about 60%.

B7: CTLA4/CD28Ig hybrid fusion protein HS2 (Fc fusion)
chain: AMHVAQPAVVLASSRGIASFVCKYSYNLFSREFRASLHKGLDSAVEVCVVYGNYSQQLQVYSKTGFNCDGKLGNESVTFYLQNLYVNQTDIYFCKIELMYPPPYYLGIGNGTQIYVIDPEPCPDSD
notes: range 23-96; not shown: human IgG1 hinge (Cys to Ser), CH2, CH3; junction printed as DQE
Take B7: the binding result in assay [4] was “binds”.

B8: CTLA4/CD28Ig hybrid fusion protein HS6 (Fc fusion)
chain: AMHVAQPAVVLASSRGIASFVCEYSYNLFSREVRVTVLRQADSQVTEVCAATYMMGNELTFLDDSICTGTSSGNQVNLTIQGLRAMDTGLYICKVELMYPPPYYLGIGNGTQIYVIDPEPCPDSD
notes: range 25-32; not shown: human IgG1 hinge (Cys to Ser), CH2, CH3; junction printed as DQE
On to B8, for which the binding result in assay [4] is recorded as “binds”.

B9: CTLA4/CD28Ig hybrid fusion protein HS11 (Fc fusion)
chain: NKILVKQSPMLVAYDNAVNLSCKYASPGKATEFRASLHKGLDSAVEVCVATYMMGNELQVYSKTGFNCDGKLGNESVTFYLQNLYVNQTDIYFCKIELMYPPPYYLGIGNGTQIYVIDPEPCPD
notes: range 1-24;range 33-49;range 58-96; not shown: human IgG1 hinge (Cys to Ser), CH2, CH3; junction printed as DQE
Regarding B9, the binding result in assay [4] was “binds”.

B10: CTLA4/CD28Ig hybrid fusion protein HS13 (Fc fusion)
chain: NKILVKQSPMLVAYDNAVNLSCKYASPGKATEFRASLHKGLDSAVEVCVATYMMGNELQVYSKTGFNCDGKLGNESVTFYLQNLYVNQTDIYFCKIELMYPPPYYLGIGNGTQIHVKGKHLCPS
notes: as for B1
B10: the binding result in assay [4] is reported as “binds”.

B11: CTLA4/CD28Ig hybrid fusion protein HS9 (Fc fusion)
chain: NKILVKQSPMLVAYDNAVNLSCKYASPGKATEFRASLHKGLDSAVEVCVVYGNYSQQLQVYSKTGFNCDGKLGNESVTFYLQNLYVNQTDIYFCKIEVMYPPPYLDNEKSNGTIIYVIDPEPCPD
notes: range 1-24;range 33-115; not shown: human IgG1 hinge (Cys to Ser), CH2, CH3; junction printed as DQE
As to B11, the binding result in assay [4] is on record as “binds”.

B12: CTLA4/CD28Ig hybrid fusion protein HS4-B (Fc fusion)
chain: NKILVKQSPMLVAYDNAVNLSCKYSYNLFSREFRASLHKGLDSAVEVCVVYGNYSQQLQVYSKTGFNCDGKLGNESVTFYLQNLYVNQTDIYFCKIEVMYPPPYLDNEKSNGTIIYVIDPEPCPD
notes: range 1-115; not shown: human IgG1 hinge (Cys to Ser), CH2, CH3; junction printed as DQE
Regarding B12, the binding result in assay [4] is recorded as “binds”.

B13: CTLA4/CD28Ig hybrid fusion protein HS5 (Fc fusion)
chain: NKILVKQSPMLVAYDNAVNLSCKYASPGKATEFRASLHKGLDSAVEVCVVYGNYSQQLQVYSKTGFNCDGKLGNESVTFYLQNLYVNQTDIYFCKIEVMYPPPYLDNEKSNGTIIHVKGKHLCPS
notes: CD28Ig itself runs to about 134; not shown: human IgG1 hinge (Cys to Ser), CH2, CH3; junction printed as DQE
For B13, the binding result in assay [4] was “binds”.

These data come from patent US20090317397A1 (published 2009).
